Reference: patent US20230158141A1 (YAFEI SHANGHAI BIOLOG MEDICINE SCIENCE AND TECHNOLOGY, published 2023)

Experiments:
[1] = target: PD-1 (UniProt Q15116 25-167, limits assumed); assay: ELISA, OD mutant/OD WT; ↓=less than 70%
[2] = target: T1, human Fc tagged PD-1 protein (Sino Biological) (human, UniProt Q15116 25-167); assay: ELISA, EC50 fold change; S47 on the Cys
T1 construct: bought; also called Fc tagged human PD-1 protein

[3] = target: T2, PD-1 (UniProt Q15116 25-167, limits assumed); assay: ELISA, EC50 fold change; S47 on the Cys
T2 construct: also called PD-1 antigen

[4] = target: His tagged VEGF protein (UniProt P15692-4 27-191, limits assumed); assay: ELISA, His tagged VEGF protein
His tagged VEGF protein, sequence (P15692 other isoform, or with tags, fused parts or gaps limits assumed): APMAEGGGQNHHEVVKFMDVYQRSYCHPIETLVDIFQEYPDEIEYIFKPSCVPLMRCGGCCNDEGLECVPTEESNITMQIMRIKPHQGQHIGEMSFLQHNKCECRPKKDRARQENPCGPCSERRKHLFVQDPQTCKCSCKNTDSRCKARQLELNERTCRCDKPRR

[5] = target: T3, IL2Rβ-Fc (UniProt P14784 27-239, limits assumed); assay: ELISA, against wild type IL2
T3 construct: also called IL2Rb; not shown: Fc part, not described
T3 sequence (looked up): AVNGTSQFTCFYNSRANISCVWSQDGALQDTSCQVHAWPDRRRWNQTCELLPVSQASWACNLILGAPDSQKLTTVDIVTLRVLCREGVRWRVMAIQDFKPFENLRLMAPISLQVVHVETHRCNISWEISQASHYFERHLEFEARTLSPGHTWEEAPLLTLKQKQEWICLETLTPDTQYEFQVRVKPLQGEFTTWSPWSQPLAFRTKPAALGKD

[6] = target: T4, mouse PD-1 protein (mouse, UniProt Q02242 25-167, limits assumed); assay: ELISA, TMEAbody against WT J43v2
T4 sequence (looked up): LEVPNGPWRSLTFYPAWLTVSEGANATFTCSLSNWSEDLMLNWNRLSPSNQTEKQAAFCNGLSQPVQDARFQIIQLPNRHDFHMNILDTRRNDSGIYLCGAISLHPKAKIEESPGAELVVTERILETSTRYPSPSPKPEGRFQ

[7] = target: mouse CTLA-4 protein (mouse, UniProt P09793 36-162, limits assumed); assay: ELISA, TMEAbody against WT 9D9

T1 sequence (Q15116 25-167 limits assumed): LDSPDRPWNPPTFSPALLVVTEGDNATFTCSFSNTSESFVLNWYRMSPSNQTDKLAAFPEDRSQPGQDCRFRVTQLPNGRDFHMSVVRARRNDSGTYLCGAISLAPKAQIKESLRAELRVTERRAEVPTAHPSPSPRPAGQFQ

B1: anti-PD-1 antibody 2 light chain Y32C (antibody, human IgG4 S228P, kappa, V domains shown)
VH: QVQLVESGGGVVQPGRSLRLDCKASGITFSNSGMHWVRQAPGKGLEWVAVIWYDGSKRYYADSVKGRFTISRDNSKNTLFLQMNSLRAEDTAVYYCATNDDYWGQGTLVTVSS
VL: EIVLTQSPATLSLSPGERATLSCRASQSVSSCLAWYQQKPGQAPRLLIYDASNRATGIPARFSGSGSGTDFTLTISSLEPEDFAVYYCQQSSNWPRTFGQGTKVEIKR
binding activity vs wild type [1]: < 70%

B2: Pem-se007 (Pembrolizumab light chain Gly28Cys) (antibody, human IgG4 S228P, kappa, V domains shown)
VH: QVQLVQSGVEVKKPGASVKVSCKASGYTFTNYYMYWVRQAPGQGLEWMGGINPSNGGTNFNEKFKNRVTLTTDSSTTTAYMELKSLQFDDTAVYYCARRDYRFDMGFDYWGQGTTVTVSS
VL: EIVLTQSPATLSLSPGERATLSCRASKCVSTSGYSYLHWYQQKPGQAPRLLIYLASYLESGVPARFSGSGSGTDFTLTISSLEPEDFAVYYCQHSRDLPLTFGGGTKVEIKR
modifications: Cys at 28 carries the group named in the row
Blocking efficiency of S47 [2]: 8 fold

B3: Niv-se007 (Nivolumab light chain Ser91Cys) (antibody, human IgG4 S228P, kappa, V domains shown)
VH: QVQLVESGGGVVQPGRSLRLDCKASGITFSNSGMHWVRQAPGKGLEWVAVIWYDGSKRYYADSVKGRFTISRDNSKNTLFLQMNSLRAEDTAVYYCATNDDYWGQGTLVTVSS
VL: EIVLTQSPATLSLSPGERATLSCRASQSVSSYLAWYQQKPGQAPRLLIYDASNRATGIPARFSGSGSGTDFTLTISSLEPEDFAVYYCQQCSNWPRTFGQGTKVEIKR
modifications: Cys at 91 carries the group named in the row
Blocking efficiency of S47 [3]: 25 fold

B4: Beva-se001 conjugated to S47 (antibody, human IgG1, kappa, V domains shown)
VH: EVQLVESGGGLVQPGGSLRLSCAASGYTFTNYGMNWVRQAPGKGLEWVGWINTYTGEPTYAADFCRRFTFSLDTSKSTAYLQMNSLRAEDTAVYYCAKYPHYYGSSHWYFDVWGQGTLVTVSS
VL: DIQMTQSPSSLSASVGDRVTITCSASQDISNYLNWYQQKPGKAPKVLIYFTSSLHSGVPSRFSGSGSGTDFTLTISSLQPEDFATYYCQQYSTVPWTFGQGTKVEIKR
modifications: S47 on Cys 65
notes: Bevacizumab mutant
Blocking efficiency of S47 [4]: 9 fold

B5: chemically modified IL2 Arg38Asp/Glu61Arg with Lys9 and Lys76 conjugated with R4-7 (other)
chain: APASSTKCTQLQLEHLLLDLQMILNGINNYKNPKLTDMLTFKFYMPKKATELKHLQCLERELKPLEEVLNLAQSCNFHLRPRDLISNINVIVLELKGSETTFMCEYADETATIVEFLNRWITFSQSIISTLT
modifications: R4-7 on Cys 9 and Cys 76
notes: also called a new chemically modified IL2
fold increase of binding [5]: 1.35 fold

B6: J43v2 TMEAbody (anti-mouse PD-1 antibody J43v2, Ser95 on LC) (antibody, mouse IgG2a, V domains shown)
VH: EVRLLESGGGLVKPEGSLKLSCVASGFTFSDYFMSWVRQAPGKGLEWVAHIYTKSYNYATYYSGSVKGRFTISRDDSRSMVYLQMNNLRTEDTATYYCTRDGSGYPSLDFWGQGTQVTVSS
VL: YELTQPPSASVNVGETVKITCSGDQLPKYFADWFHQRSDQTILQVIYDDNKRPSGIPERISGSSSGTTATLTIRDVRAEDEGDYYCFSGYVDSDCKLYVFGSGTQLTVLG
modifications: functional moiety on Cys 95 (which R1-R2-R3-R4 is not stated)
notes: Heavy chain re-formatted into mouse IgG2a
blocking efficiency (fold) [6]: 35 fold

B7: 9D9 TMEAbody (anti-mouse CTLA-4 antibody 9D9, Tyr54 on LC) (antibody, mouse IgG2b, kappa)
heavy: EAKLQESGPVLVKPGASVKMSCKASGYTFTDYYMNWVKQSHGKSLEWIGVINPYNGDTSYNQKFKGKATLTVDKSSSTAYMELNSLTSEDSAVYYCARYYGSWFAYWGQGTLITVSTAKTTPPSVYPLAPGCGDTTGSSVTLGCLVKGYFPESVTVTWNSGSLSSSVHTFPALLQSGLYTMSSSVTVPSSTWPSQTVTCSVAHPASSTTVDKKLEPSGPISTINPCPPCKECHKCPAPNLEGGPSVFIFPPNIKDVLMISLTPKVTCVVVDVSEDDPDVQISWFVNNVEVHTAQTQTHREDYNSTIRVVSTLPIQHQDWMSGKEFKCKVNNKDLPSPIERTISKIKGLVRAPQVYILPPPAEQLSRKDVSLTCLVVGFNPGDISVEWTSNGHTEENYKDTAPVLDSDGSYFIYSKLNMKTSKWEKTDSFSCNVRHEGLKNYYLKKTISRSPGK
light: DIVMTQTTLSLPVSLGDQASISCRSSQSIVHSNGNTYLEWYLQKPGQSPKLLICKVSNRFSGVPDRFSGSGSGTDFTLKISRVEAEDLGVYYCFQGSHVPYTFGGGTKLEIKRADAAPTVSIFPPSSEQLTSGGASVVCFLNNFYPKDINVKWKIDGSERQNGVLNSWTDQDSKDSTYSMSSTLTLTKDEYERHNSYTCEATHKTSTSPIVKSFNRNEC
modifications: functional moiety on Cys 54 (which R1-R2-R3-R4 is not stated)
notes: mIgG2b isotype
blocking efficiency (fold) [7]: 26 fold
